Test results as given in US9933424 (SEOUL NATIONAL UNIVERSITY HOSPITAL, dated 2018).

Columns and labels:
[1] = biological target: T1, adenylyl cyclase-associated protein 1 (CAP1), human, of THP-1 cells (human, UniProt Q01518 2-475); assay: western blot of cell lysates probed with mFc-human resistin as primary antibody, anti-mFc-HRP detection
T1 construct: Endogenous full-length protein in THP-1 lysates or on THP-1 cells; also called human resistin receptor; 55 kDa protein

[2] = biological target: T1, adenylyl cyclase-associated protein 1 …; assay: conclusion of Example 4 (western blot, immunofluorescence, flow cytometry on THP-1 cells)

T1 sequence (Q01518 2-475 limits assumed): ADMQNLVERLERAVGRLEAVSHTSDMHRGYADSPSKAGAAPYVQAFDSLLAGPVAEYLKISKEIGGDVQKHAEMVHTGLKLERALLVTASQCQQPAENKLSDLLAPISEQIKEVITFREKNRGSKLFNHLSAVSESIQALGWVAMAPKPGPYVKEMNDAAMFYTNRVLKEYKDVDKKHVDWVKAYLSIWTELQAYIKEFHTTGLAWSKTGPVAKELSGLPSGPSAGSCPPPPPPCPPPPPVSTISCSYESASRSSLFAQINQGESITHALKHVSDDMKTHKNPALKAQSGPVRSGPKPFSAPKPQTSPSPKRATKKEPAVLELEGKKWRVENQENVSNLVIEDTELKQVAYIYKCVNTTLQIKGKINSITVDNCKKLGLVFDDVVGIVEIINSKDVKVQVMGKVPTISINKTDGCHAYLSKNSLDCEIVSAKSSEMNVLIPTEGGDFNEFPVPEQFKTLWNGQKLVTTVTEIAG

binding result [1]	binding result [2]	Binder
binds	–	mFc-human resistin fusion protein (mouse Fc region of immunoglobulin fused to the N-terminus of human resistin) (Fc fusion, UniProt Q9HD89 19-108, looked up, Expressed in HEK293-F cells from pcDNA3.1 and purified on mFc-specific beads; also called mFc-human resistin protein; mFc human resistin recombinant protein; not shown: mouse immunoglobulin Fc region (mFc); prot) KTLCSMEEAINERIQEVAGSLIFRAISSIGLECQSVTSRGDLATCPRGFAVTGCTCGSACGSWDVRAETTCHCQCAGMDWTGARCCRVQP
–	binds	recombinant human resistin protein (ligand, UniProt Q9HD89 19-108, looked up, also called rhResistin; human recombinant resistin) KTLCSMEEAINERIQEVAGSLIFRAISSIGLECQSVTSRGDLATCPRGFAVTGCTCGSACGSWDVRAETTCHCQCAGMDWTGARCCRVQP
